# Laboratory results from the supplement of paper PMC9233669.
# Variants at the floor of the assay were thinned out.
# What was measured:
# biotinyl-Phe-oxazolone = experiment: self-aminoacylation, catalytic enhancement (BFO) (fold over background); higher = more active; k-Seq, kA / k0A0; sequences stand for … in GGGAAUGGAUCCACAUCUACGAAUUC…UUCACUGCAGACUUGACGAAGCUG
# Outline: (§1)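 Mutagenized RNA pools with a 21-nt variable region (0.43 μM) reacted with each biotinyl-aminoacyl-oxazolone at 2–1250 μM. Reactions ran in 50 μL HEPES/NaCl/KCl/MgCl2/CaCl2 buffer with 5% acetonitrile, pH 6.9–7.0, for 90 minutes at room temperature. Streptavidin-captured RNA was quantified by triplicate qPCR and Illumina sequencing, and per-sequence fraction reacted was fit to a pseudo-first-order model with 1000 bootstraps. Catalytic enhancement is median kA divided by the uncatalyzed rate, the low-activity peak of a bimodal Gaussian fit.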
# biotinyl-Ile-oxazolone = experiment: self-aminoacylation, catalytic enhancement (BIO) (fold over background); higher = more active; k-Seq, kA / k0A0; sequences stand for … in GGGAAUGGAUCCACAUCUACGAAUUC…UUCACUGCAGACUUGACGAAGCUG
# Outline: as §1
# biotinyl-Met-oxazolone = experiment: self-aminoacylation, catalytic enhancement (BMO) (fold over background); higher = more active; k-Seq, kA / k0A0; sequences stand for … in GGGAAUGGAUCCACAUCUACGAAUUC…UUCACUGCAGACUUGACGAAGCUG
# Outline: as §1
# biotinyl-Val-oxazolone = experiment: self-aminoacylation, catalytic enhancement (BVO) (fold over background); higher = more active; k-Seq, kA / k0A0; sequences stand for … in GGGAAUGGAUCCACAUCUACGAAUUC…UUCACUGCAGACUUGACGAAGCUG
# Outline: as §1
# biotinyl-Leu-oxazolone = experiment: self-aminoacylation, catalytic enhancement (BLO) (fold over background); higher = more active; k-Seq, kA / k0A0; sequences stand for … in GGGAAUGGAUCCACAUCUACGAAUUC…UUCACUGCAGACUUGACGAAGCUG
# Outline: as §1
# biotinyl-Trp-oxazolone = experiment: self-aminoacylation, catalytic enhancement (BWO) (fold over background); higher = more active; k-Seq, kA / k0A0; sequences stand for … in GGGAAUGGAUCCACAUCUACGAAUUC…UUCACUGCAGACUUGACGAAGCUG
# Outline: as §1
Sequence,self-aminoacylation (biotinyl-Phe-oxazolone),self-aminoacylation (biotinyl-Ile-oxazolone),self-aminoacylation (biotinyl-Met-oxazolone),self-aminoacylation (biotinyl-Val-oxazolone),self-aminoacylation (biotinyl-Leu-oxazolone),self-aminoacylation (biotinyl-Trp-oxazolone)
CAACUUCAAAUAAUCGGUCUG [Fam1A.1 aminoacylation ribozyme variant],15.6,1.27,1.05,1.11,1.39,12.2
CAACUUCAAGCAAUCGGUCUG [Fam1A.1 aminoacylation ribozyme variant],27.2,1.54,1.59,1.39,2.26,20.5
CAGCUUGCUAAUAGUCGCAAG [Fam3.1 aminoacylation ribozyme variant],2.54,1.82,1.72,1.86,1.89,1.72
CAGUUUGAUAAUAGUCGCAAG [Fam3.1 aminoacylation ribozyme variant],1.89,1.4,1.32,1.54,1.34,1.26
CAGUUUGCCAAUAGUCGCAAG [Fam3.1 aminoacylation ribozyme variant],6.08,2.08,1.83,1.82,1.91,1.34
CAGUUUGCUAAAAGUCGCAAG [Fam3.1 aminoacylation ribozyme variant],1.86,1.46,1.64,1.4,1.5,1.3
CAGUUUGCUAAUAGUCGCCAG [Fam3.1 aminoacylation ribozyme variant],10.1,1.86,1.91,2.17,2.43,2.45
CAGUUUGCUGAUAGUCGCAAG [Fam3.1 aminoacylation ribozyme variant],1.88,1.34,1.11,1.27,1.17,1.99
CAGUUUGUUAAUAGUCGCAAG [Fam3.1 aminoacylation ribozyme variant],2.25,1.57,1.74,1.42,1.64,1.37
CAUACCCUGGUCAUCGAGUGA [Fam2.1 aminoacylation ribozyme variant],17.6,5.75,11.3,6.04,11.8,11.7
CAUCACUUCAAGCAAUCGGUC [Fam1B.1 aminoacylation ribozyme variant],32.7,1.17,1.09,1.2,1.47,15.6
CCAAAAUUCAAGCAAUCGGUC [Fam1B.1 aminoacylation ribozyme variant],1.09,1.17,1.01,1.21,1.08,1.13
CCAAACUUCAAGAAAUCGGUC [Fam1B.1 aminoacylation ribozyme variant],6.01,0.936,0.927,0.84,0.986,5.02
CCAAACUUCAAGCAAUCGGUC [Fam1B.1 aminoacylation ribozyme variant],30.1,1.19,1.02,1.26,1.41,15.6
CCAAACUUCAAGCAUUCGGUC [Fam1B.1 aminoacylation ribozyme variant],1.96,2.1,1.83,1.86,1.84,1.75
CCACAAUUAAAGCAAUCGGUC [Fam1B.1 aminoacylation ribozyme variant],0.833,1.13,0.88,1.13,0.881,0.66
CCACAAUUCAAGCAAGCGGUC [Fam1B.1 aminoacylation ribozyme variant],0.932,1.3,1.3,1.42,0.998,0.509
CCACAAUUCAAGCAAUCGGCC [Fam1B.1 aminoacylation ribozyme variant],5.63,4.08,4.55,4.38,3.52,3.88
CCACAAUUCAAGCAAUCGUUC [Fam1B.1 aminoacylation ribozyme variant],1.06,0.909,0.815,0.864,0.713,0.719
CCACAAUUCAAGCAAUCUGUC [Fam1B.1 aminoacylation ribozyme variant],0.965,0.576,0.524,0.746,0.558,0.559
CCACAAUUCAAGCAAUGGGUC [Fam1B.1 aminoacylation ribozyme variant],0.531,1.22,1.13,1.03,1.17,0.734
CCACAAUUCAAGUAAUCGGUC [Fam1B.1 aminoacylation ribozyme variant],2.55,0.96,0.906,0.91,0.898,1.36
CCACAAUUCAUGCAAUCGGUC [Fam1B.1 aminoacylation ribozyme variant],1.19,1.25,1.1,1.41,1.16,0.87
CCACAAUUGAAGCAAUCGGUC [Fam1B.1 aminoacylation ribozyme variant],0.687,0.913,0.746,0.869,0.716,1.16
CCACACAACAAGCAAUCGGUC [Fam1B.1 aminoacylation ribozyme variant],1.15,0.894,0.781,0.899,0.863,0.693
CCACACAUCAACCAAUCGGUC [Fam1B.1 aminoacylation ribozyme variant],1.2,0.785,0.622,0.745,0.487,1.26

Sequence,self-aminoacylation (biotinyl-Phe-oxazolone),self-aminoacylation (biotinyl-Ile-oxazolone),self-aminoacylation (biotinyl-Met-oxazolone),self-aminoacylation (biotinyl-Val-oxazolone),self-aminoacylation (biotinyl-Leu-oxazolone),self-aminoacylation (biotinyl-Trp-oxazolone)
CCACACAUCAAGCAAUCAGUC [Fam1B.1 aminoacylation ribozyme variant],1.22,0.82,0.664,0.708,0.708,0.575
CCACACAUCAAGCAAUCGUUC [Fam1B.1 aminoacylation ribozyme variant],0.673,0.807,0.617,0.783,0.722,0.543
CCACACAUCAAGCAAUGGGUC [Fam1B.1 aminoacylation ribozyme variant],1.33,1.08,0.97,1.08,0.806,0.706
CCACACAUCAAGGAAUCGGUC [Fam1B.1 aminoacylation ribozyme variant],0.77,1.04,0.804,0.884,1.02,0.926
CCACACCUCAAGCAAUCAGUC [Fam1B.1 aminoacylation ribozyme variant],1.26,0.843,0.804,0.856,0.6,0.558
CCACACCUCAAGCAAUCGAUC [Fam1B.1 aminoacylation ribozyme variant],0.758,0.643,0.442,0.76,0.553,0.298
CCACACCUCAAGCAAUUGGUC [Fam1B.1 aminoacylation ribozyme variant],1.05,0.937,0.699,0.754,0.873,0.738
CCACACCUCAAGCAGUCGGUC [Fam1B.1 aminoacylation ribozyme variant],0.725,1.34,1.02,1.6,1.47,1.02
CCACACCUCAAGCCAUCGGUC [Fam1B.1 aminoacylation ribozyme variant],2.01,1.27,1.38,1.42,1.41,1.55
CCACACCUUAAGCAAUCGGUC [Fam1B.1 aminoacylation ribozyme variant],0.93,1.16,1.15,1.19,1.03,0.714
CCACACGUCAAACAAUCGGUC [Fam1B.1 aminoacylation ribozyme variant],1.2,1.21,1.2,1.34,1.45,1.83
CCACACGUCAACCAAUCGGUC [Fam1B.1 aminoacylation ribozyme variant],1.24,1.09,1.07,1.47,1.17,1.32
CCACACGUCAAGCAAUCGUUC [Fam1B.1 aminoacylation ribozyme variant],0.752,0.799,1.17,1.03,0.842,1.01
CCACACGUCAAGCGAUCGGUC [Fam1B.1 aminoacylation ribozyme variant],1.06,1.21,1.14,2.3,1.11,1.61
CCACACGUCAAUCAAUCGGUC [Fam1B.1 aminoacylation ribozyme variant],1.24,1.05,1.09,1.1,0.966,0.926
CCACACGUCAGGCAAUCGGUC [Fam1B.1 aminoacylation ribozyme variant],3.26,1.38,1.33,2.52,1.81,1.93
CCACACUACAAGCAACCGGUC [Fam1B.1 aminoacylation ribozyme variant],1.03,1.29,0.649,0.674,0.948,0.793
CCACACUACAAGCAAUCGCUC [Fam1B.1 aminoacylation ribozyme variant],1.2,1.22,1.59,1.29,1.31,1.32
CCACACUACAAGCAAUCGGUU [Fam1B.1 aminoacylation ribozyme variant],1.55,1.02,0.918,1.08,0.677,1.39
CCACACUACAAGCAUUCGGUC [Fam1B.1 aminoacylation ribozyme variant],3.61,2.14,2.58,2.71,1.73,2.04
CCACACUACAAUCAAUCGGUC [Fam1B.1 aminoacylation ribozyme variant],1.18,0.797,0.663,0.877,0.688,0.811
CCACACUCCAAGCAAUCAGUC [Fam1B.1 aminoacylation ribozyme variant],1.54,0.781,0.699,0.911,0.73,0.672
CCACACUCCAAGCACUCGGUC [Fam1B.1 aminoacylation ribozyme variant],0.642,1.35,1.32,1.24,0.768,0.831
CCACACUCGAAGCAAUCGGUC [Fam1B.1 aminoacylation ribozyme variant],1.07,1.2,1.1,1.11,0.764,0.864
CCACACUGCAAGCAAUCAGUC [Fam1B.1 aminoacylation ribozyme variant],1.1,0.79,0.584,0.741,0.852,0.551
